According to PMC7332966 (2020):

Molecular target: FANCD2 (from His6-3C-FANCD2, His6-tag cleaved by 3C protease) (human, UniProt Q9BXW9 1-1451)
Sequence (Q9BXW9 whole entry): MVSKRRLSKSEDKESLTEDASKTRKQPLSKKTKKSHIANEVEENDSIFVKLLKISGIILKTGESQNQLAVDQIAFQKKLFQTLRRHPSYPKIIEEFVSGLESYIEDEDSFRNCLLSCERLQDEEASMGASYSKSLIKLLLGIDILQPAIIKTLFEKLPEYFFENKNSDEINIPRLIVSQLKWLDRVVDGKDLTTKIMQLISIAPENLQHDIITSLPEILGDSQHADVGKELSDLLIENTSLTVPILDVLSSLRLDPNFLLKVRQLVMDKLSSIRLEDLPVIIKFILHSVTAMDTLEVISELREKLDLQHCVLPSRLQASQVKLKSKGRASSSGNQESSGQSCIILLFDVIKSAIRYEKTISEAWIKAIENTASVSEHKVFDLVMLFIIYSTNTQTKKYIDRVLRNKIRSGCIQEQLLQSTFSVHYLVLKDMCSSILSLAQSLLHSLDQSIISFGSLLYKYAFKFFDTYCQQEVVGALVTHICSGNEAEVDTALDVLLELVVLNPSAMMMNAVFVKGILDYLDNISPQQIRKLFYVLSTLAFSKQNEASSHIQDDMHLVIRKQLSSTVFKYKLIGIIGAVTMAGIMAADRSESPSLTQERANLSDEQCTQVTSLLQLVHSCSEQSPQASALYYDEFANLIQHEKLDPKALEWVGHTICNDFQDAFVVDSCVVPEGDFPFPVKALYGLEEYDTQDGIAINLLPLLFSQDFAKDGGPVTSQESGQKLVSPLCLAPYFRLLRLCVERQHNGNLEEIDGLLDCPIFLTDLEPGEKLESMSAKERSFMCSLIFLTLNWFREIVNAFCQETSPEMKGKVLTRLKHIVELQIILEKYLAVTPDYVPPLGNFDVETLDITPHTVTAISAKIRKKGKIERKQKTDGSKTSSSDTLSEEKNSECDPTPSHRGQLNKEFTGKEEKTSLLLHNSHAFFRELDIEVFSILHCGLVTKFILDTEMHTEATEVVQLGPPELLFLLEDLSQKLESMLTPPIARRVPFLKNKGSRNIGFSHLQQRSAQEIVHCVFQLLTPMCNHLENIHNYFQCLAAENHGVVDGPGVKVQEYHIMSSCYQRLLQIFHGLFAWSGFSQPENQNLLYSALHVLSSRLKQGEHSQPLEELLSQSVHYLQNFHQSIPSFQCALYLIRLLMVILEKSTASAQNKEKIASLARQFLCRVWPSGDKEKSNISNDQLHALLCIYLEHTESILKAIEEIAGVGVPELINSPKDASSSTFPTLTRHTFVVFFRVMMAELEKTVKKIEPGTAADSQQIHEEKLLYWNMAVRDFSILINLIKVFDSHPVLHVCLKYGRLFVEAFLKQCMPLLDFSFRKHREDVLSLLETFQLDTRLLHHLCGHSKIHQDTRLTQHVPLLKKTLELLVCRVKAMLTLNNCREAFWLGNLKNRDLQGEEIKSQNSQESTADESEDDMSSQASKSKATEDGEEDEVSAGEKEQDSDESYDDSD

B1: His6-FANCI (wild type) (natural protein)
chain: MDQKILSLAAEKTADKLQEFLQTLREGDLTNLLQNQAVKGKVAGALLRAIFKGSPCSEEAGTLRRRKIYTCCIQLVESGDLQKEIASEIIGLLMLEAHHFPGPLLVELANEFISAVREGSLVNGKSLELLPIILTALATKKENLAYGKGVLSGEECKKQLINTLCSGRWDQQYVIQLTSMFKDVPLTAEEVEFVVEKALSMFSKMNLQEIPPLVYQLLVLSSKGSRKSVLEGIIAFFSALDKQHNEEQSGDELLDVVTVPSGELRHVEGTIILHIVFAIKLDYELGRELVKHLKVGQQGDSNNNLSPFSIALLLSVTRIQRFQDQVLDLLKTSVVKSFKDLQLLQGSKFLQNLVPHRSYVSTMILEVVKNSVHSWDHVTQGLVELGFILMDSYGPKKVLDGKTIETSPSLSRMPNQHACKLGANILLETFKIHEMIRQEILEQVLNRVVTRASSPISHFLDLLSNIVMYAPLVLQSCSSKVTEAFDYLSFLPLQTVQRLLKAVQPLLKVSMSMRDCLILVLRKAMFANQLDARKSAVAGFLLLLKNFKVLGSLSSSQCSQSLSVSQVHVDVHSHYNSVANETFCLEIMDSLRRCLSQQADVRLMLYEGFYDVLRRNSQLANSVMQTLLSQLKQFYEPKPDLLPPLKLEACILTQGDKISLQEPLDYLLCCIQHCLAWYKNTVIPLQQGEEEEEEEEAFYEDLDDILESITNRMIKSELEDFELDKSADFSQSTSIGIKNNICAFLVMGVCEVLIEYNFSISSFSKNRFEDILSLFMCYKKLSDILNEKAGKAKTKMANKTSDSLLSMKFVSSLLTALFRDSIQSHQESLSVLRSSNEFMRYAVNVALQKVQQLKETGHVSGPDGQNPEKIFQNLCDITRVLLWRYTSIPTSVEESGKKEKGKSISLLCLEGLQKIFSAVQQFYQPKIQQFLRALDVTDKEGEEREDADVSVTQRTAFQIRQFQRSLLNLLSSQEEDFNSKEALLLVTVLTSLSKLLEPSSPQFVQMLSWTSKICKENSREDALFCKSLMNLLFSLHVSYKSPVILLRDLSQDIHGHLGDIDQDVEVEKTNHFAIVNLRTAAPTVCLLVLSQAEKVLEEVDWLITKLKGQVSQETLSEEASSQATLPNQPVEKAIIMQLGTLLTFFHELVQTALPSGSCVDTLLKDLCKMYTTLTALVRYYLQVCQSSGGIPKNMEKLVKLSGSHLTPLCYSFISYVQNKSKSLNYTGEKKEKPAAVATAMARVLRETKPIPNLIFAIEQYEKFLIHLSKKSKVNLMQHMKLSTSRDFKIKGNILDMVLREDGEDENEEGTASEHGGQNKEPAKKKRKK
modifications: RED-tris-NTA dye (NanoTemper) on the His6 tag
  Kd: 11 nM
